Consider one molecule from patent US12528864 (GlaxoSmithKline, dated 2026).

Assay [1] has as its target T1, cynomolgus monkey CD96v2 expressed on cells (CHO cells; transiently transfected HEK cells) (cynomolgus monkey, UniProt A0A2K5TWV6 22-569).
T1 construct: the cell is named under assay; also called CHO-cyCD96; Cyno CD96v2
T1 sequence: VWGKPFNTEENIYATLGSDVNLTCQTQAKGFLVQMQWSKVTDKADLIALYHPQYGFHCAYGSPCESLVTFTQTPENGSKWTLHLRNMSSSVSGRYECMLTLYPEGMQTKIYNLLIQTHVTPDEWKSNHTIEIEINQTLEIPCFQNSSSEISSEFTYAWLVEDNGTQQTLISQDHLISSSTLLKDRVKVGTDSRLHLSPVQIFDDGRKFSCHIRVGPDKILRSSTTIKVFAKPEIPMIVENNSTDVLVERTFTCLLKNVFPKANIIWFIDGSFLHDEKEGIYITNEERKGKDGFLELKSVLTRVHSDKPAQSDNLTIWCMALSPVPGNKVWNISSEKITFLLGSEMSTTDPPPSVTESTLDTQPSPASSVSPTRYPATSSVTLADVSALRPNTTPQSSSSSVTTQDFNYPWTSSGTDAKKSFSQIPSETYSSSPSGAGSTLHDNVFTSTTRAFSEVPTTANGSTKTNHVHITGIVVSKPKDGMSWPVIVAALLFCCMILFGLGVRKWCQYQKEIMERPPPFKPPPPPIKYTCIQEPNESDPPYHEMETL
Briefly: flow cytometry on transiently transfected HEK cells; geometric mean, n = 3.

Assay [2] has as its target T2, human CD96v2 expressed on cells (CHO cells; transiently transfected HEK cells) (human, UniProt P40200-2 22-569).
T2 construct: whole, on cells; the cell is named under assay; also called CHO-huCD96; hCD96v2
T2 sequence (looked up): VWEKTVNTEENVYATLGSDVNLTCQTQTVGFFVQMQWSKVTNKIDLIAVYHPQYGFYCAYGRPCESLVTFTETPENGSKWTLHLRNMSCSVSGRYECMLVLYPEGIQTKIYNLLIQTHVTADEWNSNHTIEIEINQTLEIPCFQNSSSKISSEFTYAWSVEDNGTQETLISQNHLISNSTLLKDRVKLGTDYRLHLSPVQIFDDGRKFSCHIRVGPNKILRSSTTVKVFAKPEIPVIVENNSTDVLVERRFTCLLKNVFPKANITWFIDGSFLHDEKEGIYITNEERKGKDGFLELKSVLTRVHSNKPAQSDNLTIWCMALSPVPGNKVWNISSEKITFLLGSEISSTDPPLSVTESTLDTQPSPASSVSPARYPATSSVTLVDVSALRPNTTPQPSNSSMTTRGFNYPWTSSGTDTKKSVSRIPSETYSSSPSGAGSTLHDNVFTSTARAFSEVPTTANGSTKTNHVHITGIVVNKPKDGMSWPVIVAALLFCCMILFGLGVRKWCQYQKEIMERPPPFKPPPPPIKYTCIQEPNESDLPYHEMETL
Described as above.

Assay [3] has as its target T3, blood derived cynomolgus monkey CD96v2 on transiently transfected HEK cells (cynomolgus monkey).
T3 construct: also called Blood derived Cyno CD96v2
The assay is described as above.

The target of assay [4] is T4, cynomolgus monkey CD96v1 on transiently transfected HEK cells (cynomolgus monkey).
T4 construct: whole, on cells; also called Cyno CD96v1
Described as above.

Assay [5] concerns the target T5, human CD96v1 on transiently transfected HEK cells (human, UniProt P40200 22-585).
T5 construct: whole, on cells
T5 sequence (looked up): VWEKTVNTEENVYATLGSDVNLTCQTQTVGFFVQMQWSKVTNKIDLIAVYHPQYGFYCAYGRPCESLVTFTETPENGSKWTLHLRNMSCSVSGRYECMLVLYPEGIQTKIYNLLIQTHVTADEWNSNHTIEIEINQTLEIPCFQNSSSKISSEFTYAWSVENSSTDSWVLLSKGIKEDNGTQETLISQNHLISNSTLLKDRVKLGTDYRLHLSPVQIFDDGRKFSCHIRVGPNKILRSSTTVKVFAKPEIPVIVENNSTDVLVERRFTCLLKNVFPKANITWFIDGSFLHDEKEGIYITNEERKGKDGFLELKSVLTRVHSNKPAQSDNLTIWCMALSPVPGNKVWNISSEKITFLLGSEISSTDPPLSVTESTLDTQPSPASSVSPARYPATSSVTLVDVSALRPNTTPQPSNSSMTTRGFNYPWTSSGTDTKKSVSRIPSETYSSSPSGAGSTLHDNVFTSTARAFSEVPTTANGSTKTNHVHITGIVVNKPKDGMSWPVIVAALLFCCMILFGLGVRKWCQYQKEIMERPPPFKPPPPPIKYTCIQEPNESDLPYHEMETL
Described as above.

Assay [6] concerns the target T2, human CD96v2 expressed on cells (CHO …). Briefly: flow cytometry, inhibition of human CD155-Fc-AF647 binding to CHO cells expressing human CD96v2; competitor CD155-Fc. Background: Flow cytometry measures light scatter and fluorescence of single cells or particles in a stream.
Assay [7] deals with T3, blood derived cynomolgus monkey CD96v2 …. Briefly: flow cytometry on transiently transfected HEK cells (Cyno blood derived CD96v2).
Assay [8] concerns the target T2, human CD96v2 expressed on cells (CHO …). Briefly: flow cytometry on transiently transfected HEK cells (Human CD96v2).
Assay [9] deals with T1, cynomolgus monkey CD96v2 expressed on …. Briefly: flow cytometry on transiently transfected HEK cells; lower end of range, n = 3.
Assay [10] addresses T2, human CD96v2 expressed on cells (CHO …). The assay is described as above.
The target of assay [11] is T3, blood derived cynomolgus monkey CD96v2 …. The assay is described as above.
The target of assay [12] is T4, cynomolgus monkey CD96v1 on transiently …. The description is as above.
The target of assay [13] is T5, human CD96v1 on transiently transfected …. Described as above.

One may read the EC50 as the concentration that produces a half-maximal response. A word on the IC50: it is the concentration at which inhibition is half-maximal. By EC50 (read off the curve) is commonly meant the concentration giving half of the maximal effect.

B1: 42Y073-86F08-66 (antibody)
heavy: not shown
light: DIQLTQSPSSLSASVGDRVTITCRASQSISSYLNWYQQKPGKAPKLLIYAASSLQSGVPSRFSGSGSGTDFTLTISSLQPEDFATYYCQQVLHTITFGGGTKVEIKRTVAAPSVFIFPPSDEQLKSGTASVVCLLNNFYPREAKVQWKVDNALQSGNSQESVTEQDSKDSTYSLSSTLTLSKADYEKHKVYACEVTHQGLSSPVTKSFNRGEC
notes: also called GSK 6097608; GSK6097608
As to B1, the EC50 was 7.88 nM in assay [1]; 6.44 nM in [2]; 7.34 nM in assay [3]; 9.17 nM in [4]; 5.28 nM in assay [5]; 5.54 nM in assay [9]. The half-maximal effective concentration (EC50) in assay [10] is 4.72 nM; in [11], 5.27 nM; in assay [12], 6.83 nM; in assay [13], 3.13 nM. In assay [6], this molecule had an IC50 of 1.55 nM. Moreover, the concentration for a half-maximal effect (EC50 (read off the curve)) in assay [7] was ~9 nM; in [8], ~5 nM.
